Test results taken from the supplement of paper PMC10899765.

What follows are sequences tested on MCF10A (assay: one-nucleolus phenotype percent effect (relative to siNT 0% and siNOL11 100%); higher = more cells with one nucleolus (ribosome biogenesis inhibition)). Settings: 20 nM; 72 h.
Protocol: (§1)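 After 72 h, cells were fixed and stained with Hoechst and anti-fibrillarin, and nucleoli per nucleus were counted with CellProfiler. Values are plate-adjusted percent effect for the one-nucleolus and 5+ nucleoli phenotypes, normalised to siNT (0%) and to the positive controls siNOL11 or siKIF11 (100%), as the mean of biological triplicates. Percent viability is the nuclei count relative to siNT.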
With “UUCCAGCCCUUCUAAUGGUAGG [hsa-miR-6512-3p]” the “one-nucleolus phenotype percent effect” value was 39.8%. For “CUUCCGGUCUGUGAGCCCCGUC [hsa-miR-4664-3p]”, the “one-nucleolus phenotype percent effect” value was 14.5%. For GUGAGUGUGGAUCCUGGAGGAAU [hsa-miR-4658], the “one-nucleolus phenotype percent effect” value was -8.09%. ACAGGGCCGCAGAUGGAGACU [hsa-miR-3918] was tested, and the “one-nucleolus phenotype percent effect” value was 50.3%. “UGCAAAAGUAAUUGCAGUUUUUG [hsa-miR-548g-5p]” was tested, and the “one-nucleolus phenotype percent effect” value was -17%. In the case of “AUGCAGGCCUGUGUACAGCACU [hsa-miR-6811-5p]”, the “one-nucleolus phenotype percent effect” value is reported as 57%. In the case of GCCCCGGGCAGUGUGAUCAUC [hsa-miR-5587-3p], the “one-nucleolus phenotype percent effect” value is reported as -20.5%. For “AAAGUGCAUCCUUUUAGAGUGU [hsa-miR-519a-3p]”, the “one-nucleolus phenotype percent effect” value was -15.2%. In the case of “UGGGGAGGUGUGGAGUCAGCAU [hsa-miR-6825-5p]”, the “one-nucleolus phenotype percent effect” value is reported as 37.7%. In the case of “CCUAAUUUGAACACCUUCGGUA [hsa-miR-4735-5p]”, the “one-nucleolus phenotype percent effect” value is reported as -11.3%. With GGUAGUGAGUUAUCAGCUAC [hsa-miR-6073] the “one-nucleolus phenotype percent effect” value was 2.63%. With AUCGGGCCCUCGGCGCCGG [hsa-miR-3181] the “one-nucleolus phenotype percent effect” value was 8.67%. With “AAGCCCUUACCCCAAAAAGUAU [hsa-miR-129-1-3p]” the “one-nucleolus phenotype percent effect” value was 23.6%. For “GCCCUCUGUCACCUUGCAGACG [hsa-miR-2276-5p]”, the “one-nucleolus phenotype percent effect” value was -20.8%. “GAAAGCGCUUCCCUUUGCUGGA [hsa-miR-518a-3p]” was tested, and the “one-nucleolus phenotype percent effect” value was 17.4%. ACUGAUUUCUUUUGGUGUUCAG [hsa-miR-29a-5p] was tested, and the “one-nucleolus phenotype percent effect” value was -23.9%. In the case of UUCAGAUCCCAGCGGUGCCUCU [hsa-miR-5100], the “one-nucleolus phenotype percent effect” value is reported as 14.1%. “AAAAACCACAAUUACUUUUGCACCA [hsa-miR-548aa]” was tested, and the “one-nucleolus phenotype percent effect” value was 51.2%. “ACAAAAAAAAAAGCCCAACCCUUC [hsa-miR-3613-3p]” was tested, and the “one-nucleolus phenotype percent effect” value was -10.2%. “CGGGUAGAGAGGGCAGUGGGAGG [hsa-miR-197-5p]” was tested, and the “one-nucleolus phenotype percent effect” value was -25.5%. With UUCAGCAGGAACAGCU [hsa-miR-4291] the “one-nucleolus phenotype percent effect” value was -4.14%. With “UCGGCCUGACCACCCACCCCAC [hsa-miR-1234-3p]” the “one-nucleolus phenotype percent effect” value was -20.1%. For “UCUGCCAUCCUCCCUCCCCUAC [hsa-miR-4769-3p]”, the “one-nucleolus phenotype percent effect” value was -18%. With ACGGAAUAUGUAUACGGAAUAUA [hsa-miR-3669] the “one-nucleolus phenotype percent effect” value was -9.77%. CAGUUGGGUCUAGGGGUCAGGA [hsa-miR-4259] was tested, and the “one-nucleolus phenotype percent effect” value was 31.8%. In the case of AGAGGUUGCCCUUGGUGAAUUC [hsa-miR-377-5p], the “one-nucleolus phenotype percent effect” value is reported as 36.3%. For UCUGAAUUGUAAGAGUUGUUA [hsa-miR-4680-3p], the “one-nucleolus phenotype percent effect” value was -21.5%. In the case of AACACACCUGGUUAACCUCUUU [hsa-miR-329], the “one-nucleolus phenotype percent effect” value is reported as -0.532%. In the case of “AUACAUGUCAGAUUGUAUGCC [hsa-miR-4666a-5p]”, the “one-nucleolus phenotype percent effect” value is reported as -5.95%. For UCAUUAUAUGUAUGAUCUGGAC [hsa-miR-4528], the “one-nucleolus phenotype percent effect” value was -16.8%. In the case of UCAUUUAUCUGUUGGGAAGCUA [hsa-miR-4729], the “one-nucleolus phenotype percent effect” value is reported as 1.2%. For AGGCGGGGCGCCGCGGGACCGC [hsa-miR-663a], the “one-nucleolus phenotype percent effect” value was 0.191%. For CGUCCCGGGGCUGCGCGAGGCA [hsa-miR-4449], the “one-nucleolus phenotype percent effect” value was -6.92%. AAACUACUGAAAAUCAAAGAU [hsa-miR-606] was tested, and the “one-nucleolus phenotype percent effect” value was -12.6%. CAAAGUGCUUACAGUGCAGGUAG [hsa-miR-17-5p] was tested, and the “one-nucleolus phenotype percent effect” value was -20.9%. With UCCUCAUCACACUGCACCUUAG [hsa-miR-6072] the “one-nucleolus phenotype percent effect” value was 13.4%. With CCGCCUGAGCUAGCUGUGG [hsa-miR-6078] the “one-nucleolus phenotype percent effect” value was -22.1%. CUCGAGUUGGAAGAGGCG [hsa-miR-4444] was tested, and the “one-nucleolus phenotype percent effect” value was 19.6%. For “CCAGGGGGAUGGGCGAGCUUGGG [hsa-miR-6798-5p]”, the “one-nucleolus phenotype percent effect” value was -16.7%. “CGCAGGGCCCUGGCGCAGGCAU [hsa-miR-6836-5p]” was tested, and the “one-nucleolus phenotype percent effect” value was 28.5%. For “UGAUUGUCUUCCCCCACCCUCA [hsa-miR-6766-3p]”, the “one-nucleolus phenotype percent effect” value was 1.17%. For “AUUGUCCUUGCUGUUUGGAGAU [hsa-miR-2355-3p]”, the “one-nucleolus phenotype percent effect” value was -8.98%. In the case of AAGGUAUUGUUCAGACUUAUGA [hsa-miR-4678], the “one-nucleolus phenotype percent effect” value is reported as 5.33%. With UUCGCGGGCGAAGGCAAAGUC [hsa-miR-3124-5p] the “one-nucleolus phenotype percent effect” value was 3.56%. For AAUGUAGAGAUUGAUCAAAAU [hsa-miR-3668], the “one-nucleolus phenotype percent effect” value was 2.57%. With “UUAGAGGCUGGAAUAGAGAUUCU [hsa-miR-6866-5p]” the “one-nucleolus phenotype percent effect” value was 9.98%. With UGGAGUGUGACAAUGGUGUUUG [hsa-miR-122-5p] the “one-nucleolus phenotype percent effect” value was -11.4%. In the case of UGGAAGGAGGUUGCCGGACGCU [hsa-miR-4533], the “one-nucleolus phenotype percent effect” value is reported as 9.34%. For “CUCUCACCACUGCCCUCCCACAG [hsa-miR-1229-3p]”, the “one-nucleolus phenotype percent effect” value was -20.5%. “UAAGGUGCAUCUAGUGCAGUUAG [hsa-miR-18b-5p]” was tested, and the “one-nucleolus phenotype percent effect” value was 40.6%. In the case of AGUGGCAAAGUCUUUCCAUAU [hsa-miR-3688-5p], the “one-nucleolus phenotype percent effect” value is reported as 16%. UCCCCUUCCUCCCUGCCCAG [hsa-miR-6756-3p] was tested, and the “one-nucleolus phenotype percent effect” value was -12.3%. “CCUCAAAUGUGGAGCACUAUUCU [hsa-miR-372-5p]” was tested, and the “one-nucleolus phenotype percent effect” value was -27.9%. For UGAGGGAGGAGACUGCA [hsa-miR-4419a], the “one-nucleolus phenotype percent effect” value was 18.6%. For “CUCUAGCCACAGAUGCAGUGAU [hsa-miR-1287-3p]”, the “one-nucleolus phenotype percent effect” value was 31.4%. For AAAGCGCUUCCCUUCAGAGUG [hsa-miR-518e-3p], the “one-nucleolus phenotype percent effect” value was 9.91%. For “UUGGGGUUUGGGGUGCAGACAUUGC [hsa-miR-6855-5p]”, the “one-nucleolus phenotype percent effect” value was 34.4%. In the case of “AGGGAAAAAAAAAAGGAUUUGUC [hsa-miR-4668-5p]”, the “one-nucleolus phenotype percent effect” value is reported as -20.9%. With “ACUGGCUAGGGAAAAUGAUUGGAU [hsa-miR-664a-5p]” the “one-nucleolus phenotype percent effect” value was 16.3%.

These sequences were tested on MCF10A (assay: 5+ nucleoli phenotype percent effect (relative to siNT 0% and siKIF11 100%); higher = more cells with five or more nucleoli). Settings: 20 nM; 72 h.
Protocol: as §1
In the case of “UUCCAGCCCUUCUAAUGGUAGG [hsa-miR-6512-3p]”, the “5+ nucleoli phenotype percent effect” value is reported as -33.4%. For “CUUCCGGUCUGUGAGCCCCGUC [hsa-miR-4664-3p]”, the “5+ nucleoli phenotype percent effect” value was -1.01%. For GUGAGUGUGGAUCCUGGAGGAAU [hsa-miR-4658], the “5+ nucleoli phenotype percent effect” value was 0.899%. For ACAGGGCCGCAGAUGGAGACU [hsa-miR-3918], the “5+ nucleoli phenotype percent effect” value was -31.2%. In the case of “UGCAAAAGUAAUUGCAGUUUUUG [hsa-miR-548g-5p]”, the “5+ nucleoli phenotype percent effect” value is reported as 3.25%. “AUGCAGGCCUGUGUACAGCACU [hsa-miR-6811-5p]” was tested, and the “5+ nucleoli phenotype percent effect” value was -31.3%. GCCCCGGGCAGUGUGAUCAUC [hsa-miR-5587-3p] was tested, and the “5+ nucleoli phenotype percent effect” value was 18.8%. With “AAAGUGCAUCCUUUUAGAGUGU [hsa-miR-519a-3p]” the “5+ nucleoli phenotype percent effect” value was 44.1%. For “UGGGGAGGUGUGGAGUCAGCAU [hsa-miR-6825-5p]”, the “5+ nucleoli phenotype percent effect” value was 1.61%. In the case of “CCUAAUUUGAACACCUUCGGUA [hsa-miR-4735-5p]”, the “5+ nucleoli phenotype percent effect” value is reported as 8.71%. In the case of GGUAGUGAGUUAUCAGCUAC [hsa-miR-6073], the “5+ nucleoli phenotype percent effect” value is reported as 18.3%. AUCGGGCCCUCGGCGCCGG [hsa-miR-3181] was tested, and the “5+ nucleoli phenotype percent effect” value was -23.1%. In the case of “AAGCCCUUACCCCAAAAAGUAU [hsa-miR-129-1-3p]”, the “5+ nucleoli phenotype percent effect” value is reported as -37.4%. “GCCCUCUGUCACCUUGCAGACG [hsa-miR-2276-5p]” was tested, and the “5+ nucleoli phenotype percent effect” value was 60.2%. With “GAAAGCGCUUCCCUUUGCUGGA [hsa-miR-518a-3p]” the “5+ nucleoli phenotype percent effect” value was -15.5%. In the case of ACUGAUUUCUUUUGGUGUUCAG [hsa-miR-29a-5p], the “5+ nucleoli phenotype percent effect” value is reported as 23.5%. UUCAGAUCCCAGCGGUGCCUCU [hsa-miR-5100] was tested, and the “5+ nucleoli phenotype percent effect” value was -27.6%. “AAAAACCACAAUUACUUUUGCACCA [hsa-miR-548aa]” was tested, and the “5+ nucleoli phenotype percent effect” value was -30.9%. For “ACAAAAAAAAAAGCCCAACCCUUC [hsa-miR-3613-3p]”, the “5+ nucleoli phenotype percent effect” value was 16.2%. “CGGGUAGAGAGGGCAGUGGGAGG [hsa-miR-197-5p]” was tested, and the “5+ nucleoli phenotype percent effect” value was 48.2%. For UUCAGCAGGAACAGCU [hsa-miR-4291], the “5+ nucleoli phenotype percent effect” value was -7.69%. For “UCGGCCUGACCACCCACCCCAC [hsa-miR-1234-3p]”, the “5+ nucleoli phenotype percent effect” value was 54.9%. For “UCUGCCAUCCUCCCUCCCCUAC [hsa-miR-4769-3p]”, the “5+ nucleoli phenotype percent effect” value was 30.9%. In the case of ACGGAAUAUGUAUACGGAAUAUA [hsa-miR-3669], the “5+ nucleoli phenotype percent effect” value is reported as 30.9%. With CAGUUGGGUCUAGGGGUCAGGA [hsa-miR-4259] the “5+ nucleoli phenotype percent effect” value was -30.7%. For AGAGGUUGCCCUUGGUGAAUUC [hsa-miR-377-5p], the “5+ nucleoli phenotype percent effect” value was -35.2%. In the case of UCUGAAUUGUAAGAGUUGUUA [hsa-miR-4680-3p], the “5+ nucleoli phenotype percent effect” value is reported as 14.3%. With AACACACCUGGUUAACCUCUUU [hsa-miR-329] the “5+ nucleoli phenotype percent effect” value was 4.45%. For “AUACAUGUCAGAUUGUAUGCC [hsa-miR-4666a-5p]”, the “5+ nucleoli phenotype percent effect” value was 3.52%.
